{
  "source": "paper PMC5812989",
  "about": "“Evaluation of HER2-specific peptide ligand for its employment as radiolabeled imaging probe” (Scientific Reports, 2018)",
  "key": {"[1]": {"design": "species or system BALB/c nu/nu mice", "details": "mouse, in vivo", "description": "Four BALB/C nu/nu mice were used for the biodistribution studies. At the time of experiment, the average animal weight was 20.5 ± 0.9 g. Animals were injected intravenously (tail vein) with 3 µg (30 kBq) of ^111In-DTPA-A9 in 100 µL PBS. Since DTPA-A9 peptide resulted stable to serum proteolytic degradation in a range of 90 minutes (for details see Supplementary Information Fig. S6), at 1 hour after injection, a mixture of Ketalar-Rompun (20 µL of solution per gram body weight; Ketalar: 10 mg/mL; Rompun: 1 mg/mL) was injected intraperitonealy, and the mice were euthanized by a heart puncture using a syringe, pre-washed with diluted heparin (5000 IE/mL). Blood as well as brain, stomach, pancreas, lung, liver, spleen, kidneys, samples of muscle and bone, gastrointestinal tract (with its content) and remaining carcass were collected in pre-weighed plastic vials. Organs and tissue samples were weighed and measured for radioactivity using an automatic gamma counter. The tissue uptake values were calculated as per cent injected activity per gram of tissue (% ID/g) and per whole sample (% ID/sample). The gastrointestinal tract and the carcass uptakes were calculated only as % ID per whole sample. The radioactivity in the gastrointestinal tract with its content was used as a measure of hepatobiliary excretion."}, "[2]": {"assay": "In vitro peptide stability in serum (HPLC)", "type": "in vitro ADME", "details": "during one hour; 0.5 mg/mL, RPMI with 10% FBS, 37 °C", "description": "Figure S4: In vitro Peptide Stability in Serum. A9 modified peptides at concentration of 0.5 mg/mL were dissolved in RPMI containing 10% of FBS (fetal bovine serum) and incubated at 37 °C. Samples (50 μL) were taken regularly (t = 0, 0.5, 1, 2, 3, 6, and 24 h) and mixed with 100 μL of CH3CH2OH (96%), for precipitation of serum proteins. The cloudy reaction sample is cooled (4 °C) for 15 min and then spin at 16,000 rpm for 2 min, to pellet the precipitated serum proteins^1. The chromatographic analysis of samples (30 μL injected for each injection) were performed on an Alliance HT WATERS 2795 system, equipped with a PDA WATERS detector 2996 using a […] C18 Waters xBridge (3 μm, 4.6 x 50 mm) column, with a linear gradient from 5% to 70% of 0.05% TFA in CH3CN (Solvent B) over 20 min at a flow rate of 0.2 mL/min. […] Results are mean of three independent experiments performed in duplicate."}, "[3]": {"system": "HER2-expressing BT474 cells", "assay": "LigandTracer / InteractionMap kinetics of binding to living HER2-expressing cells", "design": "species or system human", "details": "1:2 interaction model, room temperature, 4, 12 and 36 nM, read-out: affinity, weaker binding site (low affinity interaction)", "description": "For cell studies, the HER2-expressing breast carcinoma cell line BT474 (from ATCC) was used. The cell line was cultured in RPMI medium (Flow Irvine, UK) supplemented with 10% fetal calf serum (Sigma, USA), 2 mM L-glutamine and PEST (penicillin 100 IU/mL and 100 μg/mL streptomycin), all from Biokrom Kg, Germany.\nCells from the human breast carcinoma cell line BT474 were seeded on a local area of a cell culture dish (NunclonTM, Size 100620, NUNC A/S, Roskilde, Denmark), as described by Björke and Andersson[63]. The binding of ^111In-DTPA-A9 to living cells was monitored in real-time at room temperature using LigandTracer Yellow, using method established by Björke and Andersson[63]. In brief, the cell culture dish was placed on the sloping and rotating cell dish holder in LigandTracer Yellow, followed by a continuous monitoring of the radioactivity level along the rim of the dish. If the labelled peptide binds to the cells, an elevated signal will be recorded when the cells pass by the detector. […] Binding and dissociation curves were analyzed by InteractionMap software as described by Björkelund et al. to calculate affinity of ^111In-DTPA-A9 binding to living HER2-expressing cells.\nAdditionally, specificity of ^111In-DTPA-A9 binding to HER2 expressing cells was evaluated using pre-saturation of receptors by trastuzumab and by using ^111In-labeled scrambled DTPA-A9 (^111In- DTPA-S-A9). […]"}},
  "note": "Where a SMILES comes first, the peptide text is derived from it. Where no end group is shown, it is not given here. The star is where a group is joined. DTPA = O=C(O)CN(CCN(CC(=O)O)CC(=O)O)CCN(CC(=O)O)CC(=O)*",
  "data": [
    {"compound": "CC(C)[C@H](NC(=O)[C@H](C)NC(=O)[C@@H](NC(=O)[C@H](CC(N)=O)NC(=O)[C@@H](NC(=O)[C@H](CC(=O)O)NC(=O)[C@H](CCC(N)=O)NC(=O)CN(CCN(CCN(CC(=O)O)CC(=O)O)CC(=O)O)CC(=O)O)C(C)C)[C@@H](C)O)C(=O)N[C@@H](C)C(=O)N[C@@H](Cc1c[nH]c2ccccc12)C(N)=O", "note": "[^111In-DTPA-A9, metal not drawn] ({DTPA}-QDVNTAVAW-NH2)", "values": [
      {"measurement": "radioactivity in the gastrointestinal tract with content", "setting": "[1]", "value": "approximately 1 % of injected activity"},
      {"measurement": "uptake, blood", "setting": "[1]; iv, 1 h", "value": "0.24 ± 0.04", "unit": "% ID/g"},
      {"measurement": "uptake, bone", "setting": "[1]; iv, 1 h", "value": "0.16 ± 0.13", "unit": "% ID/g"},
      {"measurement": "uptake, brain", "setting": "[1]; iv, 1 h", "value": "0.03 ± 0.03", "unit": "% ID/g"},
      {"measurement": "uptake, liver", "setting": "[1]; iv, 1 h", "value": "0.44 ± 0.04", "unit": "% ID/g"},
      {"measurement": "uptake, lung", "setting": "[1]; iv, 1 h", "value": "0.5 ± 0.3", "unit": "% ID/g"},
      {"measurement": "uptake, muscle", "setting": "[1]; iv, 1 h", "value": "0.01 ± 0.01", "unit": "% ID/g"},
      {"measurement": "uptake, pancreas", "setting": "[1]; iv, 1 h", "value": "0.13 ± 0.03", "unit": "% ID/g"},
      {"measurement": "uptake, spleen", "setting": "[1]; iv, 1 h", "value": "0.22 ± 0.01", "unit": "% ID/g"},
      {"measurement": "uptake, stomach", "setting": "[1]; iv, 1 h", "value": "0.27 ± 0.07", "unit": "% ID/g"}
    ]},
    {"compound": "QDVNTAVAW-NH2 [A9]", "values": [
      {"measurement": "stability on incubation in vitro with blood serum", "setting": "[2]", "value": "high stability"}
    ]},
    {"compound": "^111In-DTPA-SA9: 111In-labeled scrambled conjugate, same amino acids as A9 but in a different order ({DTPA}-WAVQNTDAV-NH2; also: DTPA complexed with 111In)", "values": [
      {"measurement": "Kd", "setting": "[3]", "value": 103, "unit": "nM"}
    ]}
  ]
}
